According to publication PMC10570696, “DNA-translocation-independent role of INO80 remodeler in DNA damage repairs” (The Journal of Biological Chemistry, 2023):

Columns and labels:
[1] = target: human APE1 endonuclease (AP-endonuclease 1) (human) (UniProt P27695)
[2] = target: human APE1 endonuclease (AP-endonuclease 1) (human) (UniProt P27695); remark: listed apart in the source
INO80-C ΔN sub-complex = target: T1, INO80-C ΔN sub-complex (Saccharomyces cerevisiae, UniProt P53115); assay: NADH-coupled ATPase assay (pyruvate kinase / lactate dehydrogenase), absorbance at […] nm; assay type: biochemical; conditions: nucleosome-stimulated (0-320 nM 0N80 mononucleosomes, Xenopus laevis histones); 80 nM complex; 1 mM ATP (2 mM stated elsewhere in the source); 2 mM MgCl2, 50 mM NaCl, pH 8, 30 °C
T1 construct: ten-subunit sub-complex; Ino80 truncated (residues 470-1490, printed 'residue 470 from 1490') with C-terminal Twin-Strep tag; MultiBac baculovirus, High Five insect cells; with Actin-related protein 5; Chromatin-remodeling complex subunit IES6; Ino eighty subunit 2; RuvB-like protein 1; RuvB-like protein 2; Actin-related protein 4; Actin-like protein ARP8; Actin; Ino eighty subunit 4

Chain of human APE1 endonuclease (AP-endonuclease 1) (human) (P27695 whole entry): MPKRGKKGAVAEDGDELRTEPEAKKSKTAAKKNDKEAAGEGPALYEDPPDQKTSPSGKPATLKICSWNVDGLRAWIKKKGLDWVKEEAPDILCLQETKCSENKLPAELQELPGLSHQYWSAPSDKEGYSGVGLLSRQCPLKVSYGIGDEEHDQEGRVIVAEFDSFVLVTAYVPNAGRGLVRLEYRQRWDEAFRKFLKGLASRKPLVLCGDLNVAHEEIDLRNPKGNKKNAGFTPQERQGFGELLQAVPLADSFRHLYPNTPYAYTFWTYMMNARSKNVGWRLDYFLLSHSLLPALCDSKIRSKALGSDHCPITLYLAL

| Molecule | APE1 incision assay: percent of dTHF(SHL-6) nucleosomes (100 nM) cleaved over 30 min by 5 nM APE1 with 25 nM INO80-C, with ATP (approximately 40% with APE1 alone) [1] [%] | APE1 incision assay after pre-treatment of the APE1-INO80-C mixture at 37 °C for 20 min, with ATP: proportion of incised nucleosomes [2] [%] | NADH-coupled ATPase assay (pyruvate kinase / lactate dehydrogenase), absorbance (INO80-C ΔN sub-complex) |
| --- | --- | --- | --- |
| endogenous yeast INO80-C complex (from UniProt P53115 1-1489; P53946 1-755; P32617 1-166; P40154 1-320; Q03940 1-463; Q12464 1-471; P80428 1-489; Q12386 1-881; P60010 1-375; Q08561 1-116; P35189 1-244; Q03435 1-203; P43579 1-692; Q12345 1-250; P40060 1-125) | 56 | 70 | – |
| Nc1ncnc2c1ncn2[C@@H]1O[C@H](COP(=O)(O)OP(=O)(O)OP(=O)(O)O)[C@@H](O)[C@H]1O [ATP] | – | – | conducted measurements of nucleosome-stimulated ATPase activity of INO80-C ΔN through a NADH+-coupled assay |
